According to patent publication US20230287117A1 (published 2023):

Tests used:
Test in all cases: SPR steady state
[1] = target: His-tagged human FcyRIIIA (human, UniProt P08637 17-208)
His-tagged human FcyRIIB = target: T1, His-tagged human FcyRIIB (human, UniProt P31994 46-217)
T1 chain: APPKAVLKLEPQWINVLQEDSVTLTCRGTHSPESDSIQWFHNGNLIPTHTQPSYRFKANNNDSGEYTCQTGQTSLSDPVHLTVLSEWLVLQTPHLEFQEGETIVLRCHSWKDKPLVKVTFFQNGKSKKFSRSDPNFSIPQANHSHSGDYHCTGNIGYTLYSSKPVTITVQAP

His-tagged human FcyRIIA = target: T2, His-tagged human FcyRIIA (human, UniProt P12318 36-218)
T2 chain: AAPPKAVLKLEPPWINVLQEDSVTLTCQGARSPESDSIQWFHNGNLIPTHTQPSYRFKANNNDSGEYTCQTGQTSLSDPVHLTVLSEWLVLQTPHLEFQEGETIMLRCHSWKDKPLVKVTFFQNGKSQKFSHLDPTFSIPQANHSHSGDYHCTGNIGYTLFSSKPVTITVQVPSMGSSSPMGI

His-tagged human FcyRIIIA, sequence (P08637 17-208): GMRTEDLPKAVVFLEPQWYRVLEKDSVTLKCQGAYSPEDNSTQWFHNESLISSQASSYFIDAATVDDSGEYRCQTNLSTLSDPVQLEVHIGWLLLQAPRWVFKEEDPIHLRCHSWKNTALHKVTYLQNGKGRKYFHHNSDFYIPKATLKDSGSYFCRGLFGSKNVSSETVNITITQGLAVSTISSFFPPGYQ

- Kd [1]: 140 µM
- Kd (His-tagged human FcyRIIB): 2.2 µM
- Kd (His-tagged human FcyRIIA): 16.8 µM
B1: Control Antibody A (Lot- L2), 9F7_VH_IgG4 (antibody)
constant: ASTKGPSVFPLAPCSRSTSESTAALGCLVKDYFPEPVTVSWNSGALTSGVHTFPAVLQSSGLYSLSSVVTVPSSSLGTKTYTCNVDHKPSNTKVDKRVESKYGPPCPSCPAPEFLGGPSVFLFPPKPKDTLMISRTPEVTCVVVDVSQEDPEVQFNWYVDGVEVHNAKTKPREEQFNSTYRVVSVLTVLHQDWLNGKEYKCKVSNKGLPSSIEKTISKAKGQPREPQVYTLPPSQEEMTKNQVSLTCLVKGFYPSDIAVEWESNGQPENNYKTTPPVLDSDGSFFLYSRLTVDKSRWQEGNVFSCSVMHEALHNRFTQKSLSLSLGK
